According to paper PMC3679108, “A Novel Glucagon-Related Peptide (GCRP) and Its Receptor GCRPR Account for Coevolution of Their Family Members in Vertebrates” (PLoS ONE, 2013):

Columns and labels:
[1] = target: chicken GCRP receptor (chicken)
[2] = target: Xenopus GCRP receptor (Xenopus)
[3] = target: human GIPR (human) (UniProt P48546)
Sequence of human GIPR (human) (P48546 22-466): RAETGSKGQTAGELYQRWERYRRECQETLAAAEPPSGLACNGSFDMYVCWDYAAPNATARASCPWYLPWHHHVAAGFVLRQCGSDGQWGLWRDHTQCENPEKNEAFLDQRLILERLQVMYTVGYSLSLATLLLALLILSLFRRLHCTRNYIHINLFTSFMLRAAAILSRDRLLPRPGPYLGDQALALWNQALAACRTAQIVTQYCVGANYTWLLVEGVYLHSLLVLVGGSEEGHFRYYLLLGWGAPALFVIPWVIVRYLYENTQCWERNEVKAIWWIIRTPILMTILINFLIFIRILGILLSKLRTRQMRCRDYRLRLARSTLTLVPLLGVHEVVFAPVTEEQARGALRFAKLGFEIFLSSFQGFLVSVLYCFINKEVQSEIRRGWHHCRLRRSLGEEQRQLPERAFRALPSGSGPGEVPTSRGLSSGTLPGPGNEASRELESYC

Sequence of Human GLP1 (peptide) (peptide): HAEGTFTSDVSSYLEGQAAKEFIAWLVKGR
Sequence of Human GCG (peptide) (peptide): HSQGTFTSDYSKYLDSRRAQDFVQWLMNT

Row | Substance | CRE-luc reporter, HEK293T cells with the receptor: EC50 [1] [nM] | CRE-luc reporter, HEK293T cells with the receptor: Emax (fold induction) [1] | CRE-luc reporter, HEK293T cells with the receptor: EC50 [2] [nM] | CRE-luc reporter, HEK293T cells with the receptor: Emax (fold induction) [2] | CRE-luc reporter, HEK293T cells with the receptor: EC50 [3] [nM]
1 | Human GLP1 (peptide) | 120 | 6.24 | 391 | 35 | 
2 | Exendin-4 (peptide) |  |  |  |  | 100
3 | Human GCG (peptide) | 35.3 | 6.3 | 49.4 | 32.7 | 
